T1: CD3 (human)
T1 chain: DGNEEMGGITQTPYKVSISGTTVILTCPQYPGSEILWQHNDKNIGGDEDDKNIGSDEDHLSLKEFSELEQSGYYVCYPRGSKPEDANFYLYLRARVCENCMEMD

B1: Ly1967 (multi-specific antibody)
chain 1: QVQLQQSGAELVRPGSSVKISCKASGYAFSSYWMNWVKQRPGQGLEWIGQIWPGDGDTNYNGKFKGKATLTADESSSTAYMQLSSLASEDSAVYFCARRETTTVGRYYYAMDYWGQGTTVTVSSASTKGPSVFPLAPSSKSTSGGTAALGCLVKDYFPEPVTVSWNSGALTSGVHTFPAVLQSSGLYSLSSVVTVPSSSLGTQTYICNVNHKPSNTKVDKKVEPKSCGGGGSGGGGSGGGGSGGGGSEVQLVESGGGLVQPGGSLRLSCAASGFTFSTYAMNWVRQAPGKGLEWVGRIRSKYNNYATYYADSVKGRFTISRDDSKNSLYLQMNSLKTEDTAVYYCVRHGNFGNSYVSWFAYWGQGTLVTVSSGGGGSDKTHTCPPCPAPEAAGPSVFLFPPKPKDTLMISRTPEVTCVVVDVSHEDPEVKFNWYVDGVEVHNAKTKPREEQYNSTYRVVSVLTVLHQDWLNGKEYKCKVSNKALPAPIEKTISKAKGQPREPQVYTLPPSREEMTKNQVSLWCLVKGFYPSDIAVEWESNGQPENNYKTTPPVLDSDGSFFLYSKLTVDKSRWQQGNVFSCSVMHEALHNHYTQKSLSLSPGGGGGSGGGGSGGGGSGGGGSQVQLVQSGAEVKKPGASVKVSCKASGYTFAGFEMHWVRQAPGQGLEWMGAIDPKTGGTDYNQKFKDRVTMTRDTSISTAYMELSRLRSDDTAVYYCARDLGYFDVWGQGTLVTVSS
chain 2: QVQLQQSGAELVRPGSSVKISCKASGYAFSSYWMNWVKQRPGQGLEWIGQIWPGDGDTNYNGKFKGKATLTADESSSTAYMQLSSLASEDSAVYFCARRETTTVGRYYYAMDYWGQGTTVTVSSASTKGPSVFPLAPSSKSTSGGTAALGCLVKDYFPEPVTVSWNSGALTSGVHTFPAVLQSSGLYSLSSVVTVPSSSLGTQTYICNVNHKPSNTKVDKKVEPKSCGGGGSGGGGSGGGGSGGGGSQAVVTQEPSLTVSPGGTVTLTCRSSTGAVTTSNYANWVQQKPGQAPRGLIGGTNKRAPWTPARFSGSLLGGKAALTITGAQAEDEADYYCALWYSNLWVFGGGTKLTVLGGGGSDKTHTCPPCPAPEAAGPSVFLFPPKPKDTLMISRTPEVTCVVVDVSHEDPEVKFNWYVDGVEVHNAKTKPREEQYNSTYRVVSVLTVLHQDWLNGKEYKCKVSNKALPAPIEKTISKAKGQPREPQVYTLPPSREEMTKNQVSLSCAVKGFYPSDIAVEWESNGQPENNYKTTPPVLDSDGSFFLVSKLTVDKSRWQQGNVFSCSVMHEALHNHYTQKSLSLSPGGGGGSGGGGSGGGGSGGGGSDIQMTQSPSSLSASVGDRVTITCRASQDIRSNLNWYQQKPGGAVKLLIYYTSRLHSGVPSRFSGSGSGTDYTLTISSLQPEDFATYFCQQSEKLPRTFGGGTKVEIR
chain 3: not shown
notes: CD19/CD3/CD137
B2: Ly2600 (multi-specific antibody)
chain 1: QVQLVQSGAEVKKPGASVKVSCKASGYTFTSYVMHWVRQKPGQGLEWIGYINPYNEGTESTDKFKGRATMTSDKSTSTVYMELSSLRSEDTAVYYCASIYYGYEGTYFGVWGQGTLVTVSSASTKGPSVFPLAPSSKSTSGGTAALGCLVKDYFPEPVTVSWNSGALTSGVHTFPAVLQSSGLYSLSSVVTVPSSSLGTQTYICNVNHKPSNTKVDKKVEPKSCGGGGSGGGGSGGGGSGGGGSEVQLVESGGGLVQPGGSLRLSCAASGFTFSTYAMNWVRQAPGKGLEWVGRIRSKYNNYATYYADSVKGRFTISRDDSKNSLYLQMNSLKTEDTAVYYCVRHGNFGNSYVSWFAYWGQGTLVTVSSGGGGSDKTHTCPPCPAPELLGPSVFLFPPKPKDTLMISRTPEVTCVVVDVSHEDPEVKFNWYVDGVEVHNAKTKPREEQYNSTYRVVSVLTVLHQDWLNGKEYKCKVSNKALGAPIEKTISKAKGQPREPQVYTLPPSREEMTKNQVSLWCLVKGFYPSDIAVEWESNGQPENNYKTTPPVLDSDGSFFLYSKLTVDKSRWQQGNVFSCSVMHEALHNHYTQKSLSLSPGGGGGSGGGGSGGGGSGGGGSQVQLVQSGAEVKKPGASVKVSCKASGYTFAGFEMHWVRQAPGQGLEWMGAIDPKTGGTDYNQKFKDRVTMTRDTSISTAYMELSRLRSDDTAVYYCARDLGYFDVWGQGTLVTVSS
chain 2: QVQLVQSGAEVKKPGASVKVSCKASGYTFTSYVMHWVRQKPGQGLEWIGYINPYNEGTESTDKFKGRATMTSDKSTSTVYMELSSLRSEDTAVYYCASIYYGYEGTYFGVWGQGTLVTVSSASTKGPSVFPLAPSSKSTSGGTAALGCLVKDYFPEPVTVSWNSGALTSGVHTFPAVLQSSGLYSLSSVVTVPSSSLGTQTYICNVNHKPSNTKVDKKVEPKSCGGGGSGGGGSGGGGSGGGGSQAVVTQEPSLTVSPGGTVTLTCRSSTGAVTTSNYANWVQQKPGQAPRGLIGGTNKRAPWTPARFSGSLLGGKAALTITGAQAEDEADYYCALWYSNLWVFGGGTKLTVLGGGGSDKTHTCPPCPAPELLGPSVFLFPPKPKDTLMISRTPEVTCVVVDVSHEDPEVKFNWYVDGVEVHNAKTKPREEQYNSTYRVVSVLTVLHQDWLNGKEYKCKVSNKALGAPIEKTISKAKGQPREPQVYTLPPSREEMTKNQVSLSCAVKGFYPSDIAVEWESNGQPENNYKTTPPVLDSDGSFFLVSKLTVDKSRWQQGNVFSCSVMHEALHNHYTQKSLSLSPGGGGGSGGGGSGGGGSGGGGSDIQMTQSPSSLSASVGDRVTITCRASQDIRSNLNWYQQKPGGAVKLLIYYTSRLHSGVPSRFSGSGSGTDYTLTISSLQPEDFATYFCQQSEKLPRTFGGGTKVEIR
chain 3: EIVLTQSPATLSLSPGERATLSCRASSSVSYMHWYQQKPGQAPRPWIYATSNLASGIPARFSGSRSGTDYTLTISSLEPEDFAVYYCQQWSSNTLTFGGGTKVEIKRTVAAPSVFIFPPSDEQLKSGTASVVCLLNNFYPREAKVQWKVDNALQSGNSQESVTEQDSKDSTYSLSSTLTLSKADYEKHKVYACEVTHQGLSSPVTKSFNRGEC
notes: B7H3/CD3/CD137

Assays:
CD3 = biological target: T1, CD3; assay: CD3 binding as in Example 2 (ELISA or FCM)
CD137 = biological target: T2, CD137 (human, UniProt Q07011 24-186); assay: FCM or ELISA, graded
T2 construct: Whole on GS-H2-huCD137 reporter cells in the reporter assays; also called 4-1BB

| Binder | EC50 (CD3) | binding result (CD137) |
| --- | --- | --- |
| B1 | 1.56 µg/mL | – |
| B2 | – | binds |

Source: patent EP4803150A2 (Lyvgen Biopharma Holdings Limited, dated 2026)
